We go through eleven molecules from paper PMC12881857, “The MabZIP5–MaMYB69 module cooperates with MaERF55 to modulate banana fruit ripening via cell wall degradation”.

The target in data set [1] is T1, GST-MaMYB69 (banana, UniProt A0A804IQI7 1-348).
T1 sequence: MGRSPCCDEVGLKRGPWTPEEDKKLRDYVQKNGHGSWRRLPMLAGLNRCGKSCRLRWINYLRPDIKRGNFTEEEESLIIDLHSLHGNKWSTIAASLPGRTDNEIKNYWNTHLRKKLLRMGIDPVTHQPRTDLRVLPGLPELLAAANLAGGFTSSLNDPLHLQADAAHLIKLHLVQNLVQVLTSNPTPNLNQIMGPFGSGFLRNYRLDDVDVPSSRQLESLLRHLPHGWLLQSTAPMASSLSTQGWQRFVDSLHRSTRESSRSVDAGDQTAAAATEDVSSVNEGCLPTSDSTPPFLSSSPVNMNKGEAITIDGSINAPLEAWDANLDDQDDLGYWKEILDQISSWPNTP
In words: EMSA; Chemiluminescent EMSA Kit (Beyotime); buffer, salt, pH and temperature not stated. The conditions noted are these: protein: recombinant, tags: GST (N-term, pGEX-4T-1), blunt. For orientation: A gel shift assay detects complexes by their altered migration in electrophoresis.

The target in data set [2] is T1, GST-MaMYB69. In words: competition; 50-fold excess mutant competitor vs N5; Chemiluminescent EMSA Kit (Beyotime); buffer, salt, pH and temperature not stated. The conditions noted are these: protein: recombinant; tags: GST (N-term, pGEX-4T-1); blunt.
Data set [3] deals with T1, GST-MaMYB69. In words: competition; 50-fold excess mutant competitor vs N9; Chemiluminescent EMSA Kit (Beyotime); buffer, salt, pH and temperature not stated. The conditions noted are these: protein: recombinant; tags: GST (N-term, pGEX-4T-1); blunt.
Data set [4] concerns the target T1, GST-MaMYB69. In words: competition; 50-fold excess mutant competitor vs N7; Chemiluminescent EMSA Kit (Beyotime); buffer, salt, pH and temperature not stated. The conditions noted are these: protein: recombinant; tags: GST (N-term, pGEX-4T-1); blunt.
The target in data set [5] is T1, GST-MaMYB69. In words: competition; 50-fold excess mutant competitor vs N3; Chemiluminescent EMSA Kit (Beyotime); buffer, salt, pH and temperature not stated. To be noted: protein: recombinant; tags: GST (N-term, pGEX-4T-1); blunt.
Data set [6] has as its target T1, GST-MaMYB69. In words: competition; 50-fold excess mutant competitor vs N1; Chemiluminescent EMSA Kit (Beyotime); buffer, salt, pH and temperature not stated. To be noted: protein: recombinant; tags: GST (N-term, pGEX-4T-1); blunt.

Positions count from the first letter of the chain named.

B1: MaGAL promoter probe (dsDNA)
DNA 1: GTAGGGAGACCAAATTGCTTGTGTGTGTTTGGTAGATAAA
DNA 2: TTTATCTACCAAACACACACAAGCAATTTGGTCTCCCTAC
On to B1, for which, in the data set with GST-MaMYB69 [1] (label: biotin), the binding result is “binds”.

B2: MaPL1 promoter probe (dsDNA)
DNA 1: TCCTGCATCTTGGACGAGTTTGGTGTACCCAAAGAGGACG
DNA 2: CGTCCTCTTTGGGTACACCAAACTCGTCCAAGATGCAGGA
In the case of B2, in the data set with GST-MaMYB69 [1] (label: biotin), the binding result was “binds”.

B3: MaPG3 promoter probe (dsDNA)
DNA 1: AGGCATCCAACAACTTTCTCCACCAACCTTGCTTGCATAC
DNA 2: GTATGCAAGCAAGGTTGGTGGAGAAAGTTGTTGGATGCCT
In the case of B3, the binding result with GST-MaMYB69 [1] (label: biotin) is recorded as “binds”.

B4: MaGAL mutant probe (dsDNA)
DNA 1: GTAGGGAGTTTTTTTTGCTTGTGTGTGAAAAAAAGATAAA
DNA 2: TTTATCTTTTTTTCACACACAAGCAAAAAAAACTCCCTAC
Take B4: in the data set with GST-MaMYB69 [2], the binding result is “no binding”.

B5: MaMYB69 mutant probe (dsDNA)
DNA 1: AGGTGCCATGCCGCACTTTTTTAAAAAATCTGCCCTTTTG
DNA 2: CAAAAGGGCAGATTTTTTAAAAAAGTGCGGCATGGCACCT
For B5, the binding result with GST-MaMYB69 [3] is given as “no binding”.

B6: MaMYB69 promoter probe (dsDNA)
DNA 1: AGGTGCCATGCCGCACACCTAAACCTCTTCTGCCCTTTTG
DNA 2: CAAAAGGGCAGAAGAGGTTTAGGTGTGCGGCATGGCACCT
As to B6, the binding result with GST-MaMYB69 [1] (label: biotin) is given as “binds”.

B7: MaPG3 mutant probe (dsDNA)
DNA 1: AGGCATCCAACAACTTTCTCCTTTTTTCTTGCTTGCATAC
DNA 2: GTATGCAAGCAAGAAAAAAGGAGAAAGTTGTTGGATGCCT
As to B7, the binding result with GST-MaMYB69 [4] is “no binding”.

B8: MaACO1 promoter probe (dsDNA)
DNA 1: ATTGCTTTCTTGTGGCCACCAACCGGAGAAAGGGAGTCTA
DNA 2: TAGACTCCCTTTCTCCGGTTGGTGGCCACAAGAAAGCAAT
For B8, the binding result with GST-MaMYB69 [1] is “binds”.

B9: MaPL1 mutant probe (dsDNA)
DNA 1: TCCTGCATCTTGGACGAGAAAAAAGTACCCAAAGAGGACG
DNA 2: CGTCCTCTTTGGGTACTTTTTTCTCGTCCAAGATGCAGGA
Regarding B9, the binding result in the data set with GST-MaMYB69 [5] was “no binding”.

B10: MaPE promoter probe (dsDNA)
DNA 1: GTGTCGATGGTGAAGTGTTTGGAGAAGTAGGAGCGGCAGC
DNA 2: GCTGCCGCTCCTACTTCTCCAAACACTTCACCATCGACAC
Regarding B10, in the data set with GST-MaMYB69 [1] (label: biotin), the binding result is “binds”.

B11: MaPE mutant probe (dsDNA)
DNA 1: B10 DNA 1 with G6A, T8A, G9A, G10A, T11A
DNA 2: B10 DNA 2 with A30T, C31T, C32T, A33T, C35T
In the case of B11, the binding result in the data set with GST-MaMYB69 [6] is on record as “no binding”.
